The nature of data set [1]: Steady state kinetics for NADP^+ (FDH-catalysed formate oxidation). To be noted: for Km / kcat NADP^+: cofactor NADP^+, 0.18M formate. The data set is classed as biochemical. The method, then: (§1) BcenFDH1 (Bsp184FDH) and BspFDH2 (Bsp383FDH) catalyzed oxidation of formate to CO2 was monitored by UV/Vis spectrophotometry in a 96-well plate format. A series of eight solutions of formate (0-200 mM) were prepared by successive dilutions of a stock solution of 0.5 M sodium formate in 0.1 M sodium phosphate buffer, pH 7.0. From this series, 170 μL was transferred into wells of the 96-well plate. 10 μL of the FDHs from a stock solution (64.1 μM for BcenFDH1 (Bsp184FDH) and 78.0 μM for BspFDH2 (Bsp383FDH)) were added into each well and equilibrated for 3 min at 30° C. The reaction was initiated by addition of 20 μL of NAD^+ or NADP^+ solution from a freshly prepared stock (10 mM) using an 8-channel pipette. The plate was then immediately placed into the plate reader. The plate was shaken for 5 s to ensure thorough mixing, and then time-based measurements were recorded every 15 s for 10 min. The rate of formate oxidation was calculated using an extinction coefficient of 3.38 mM^−1 (for 200 μL), which was determined using NADH standards. Km and Vmax values were obtained by non-linear regression to the Michaelis-Menten equation (Eq.1 below) using Origin v7 (Microcal Software Inc.).
(§2) Similar procedure were used for determination of Michaelis-Menten parameters for NAD^+ and NADP^+. A series of eight solutions of cofactor (0-75 mM) were prepared by successive dilutions of stock solutions. […] of sodium formate solutions (180 mM in well) were transferred into wells of the 96-well plate. 10 μL of the FDHs from a stock solution (64.1 μM for BcenFDH1 (Bsp184FDH) and 78.0 μM for BspFDH2 (Bsp383FDH)) were added into each well and equilibrated for 3 min at 30° C. The reaction was initiated by addition of 20 μL of NAD^+ or NADP^+ solutions using an 8-channel pipette. The plate was then immediately placed into the plate reader. The plate was shaken for 5 s to ensure thorough mixing, and then time-based measurements were recorded every 15 s for 10 min. The rate of formate oxidation was calculated using an extinction coefficient of 3.38 mM^−1 (for 200 μL), which was determined using NADH standards. Km and Vmax values were obtained by non-linear regression to the Michaelis-Menten equation as before.

Data set [2] can be described thus: Steady state kinetics for NAD^+ (FDH-catalysed formate oxidation). The settings on record: for Km / kcat NAD^+: cofactor NAD^+, 0.18M formate. The data set is classed as biochemical. As to the method: as §1, §2
A short description of data set [3]: Steady state kinetics for formate oxidation. Format: biochemical. The method, then: as §1
The conditions of data set [4]: cited from earlier work; for Km: read-out: Km NAD^+.
For data set [5] the following is noted: cited from earlier work.
Data set [6] in a line: Assay of enzyme activity (specific activity, U/mg). The data set is classed as biochemical. The settings on record: unit = μmol formate oxidized per min in the presence of co-factor; This work. The method, then: The reaction was initiated by addition of NAD^+. The total volume of the reaction mixture was 1 mL. Specific activity (U/mg enzyme) was defined as number of μmols of product formed per mg enzyme per minute.

Data set [7] is described as follows: pH profile determination of FDH-catalysed formate oxidation. The data set is classed as biochemical. The settings on record: pHs as low 4 or as high as 10.5. As to the method: The pH profiles for BcenFDH1 (Bsp184FDH) and BspFDH2 (Bsp383FDH) catalyzed formate oxidation, shown in FIG. 13(a) and (b), were investigated by Uv/Vis spectrophotometry in a 96-well plate format. […] From this series, 170 μL was transferred into wells of the 96-well plate. 10 μL of the FDHs from a stock solution solution (64.1 μM for BcenFDH1 (Bsp184FDH) and 78.0 μM for BspFDH2 (Bsp383FDH)) were added into each well and equilibrated for 3 min at 30° C. The reaction was initiated by addition of 20 μL of NAD^+ solution from a freshly prepared stock (10 mM) using an 8-channel pipette. The plate was then immediately placed into the plate reader. The plate was shaken for 5 s to ensure thorough mixing, and then time-based measurements were recorded every 15 s for 10 min. The rate of formate oxidation was calculated using an extinction coefficient of 3.38 mM^−1 (for 200 μL).

Data set [8] can be described thus: Thermal stability study (remaining activity after incubation). The data set is classed as physicochemical. As to the method:
FIGS. 19 and 20—show the effect of temperature on the stability of the Bsp184FDH and Bsp383FDH enzymes. In FIG. […] In FIG. 20 (1) Bsp184FDH (2.1 mg/mL) and (2) Bsp383FDH (1.5 mg/mL) were incubated at 60° C. and 70° C. for 48 hours period in a similar way. Remaining activities were assayed under standard assay conditions and were expressed as the percentage of activities.
Thermal stability for purified wild-type BcenFDH1 (Bsp184FDH) and BspFDH2 (Bsp383FDH) catalyzed formate oxidation were investigated by Uv/V is spectrophotometry in a 96-well plate format. The results are illustrated in FIGS. 19 and 20. […] In addition, time based-thermal stability for purified wild-type BcenFDH1 (Bsp184FDH) and BspFDH2 (Bsp383FDH) catalyzed formate oxidation were also investigated at 60° C. and 70° C. over 48 hours in a similar way. The samples were spun down briefly to remove any precipitations before use. 10 μL of heat-treated BcenFDH1 and BspFDH2 were added into each well and equilibrated for 3 min at 30° C. after adding 170 μL of 200 mM sodium formate (dissolving in 50 mM sodium phosphate buffer, pH 7.0.) The reaction was initiated by addition of 20 μL of NADP^+ solution from a freshly prepared stock of 20 mM using an 8-channel pipette. The plate was then immediately placed into the plate reader. The plate was shaken for 5 seconds to ensure thorough mixing. Time-based measurements were recorded every 10 s for 10 min. The rate of formate oxidation was calculated using the absorption coefficient of 3.38 mM^−1 (for 200 μL).

The conditions of data set [9]: Serov et al. (2002), cited from earlier work; for Km: read-out: Km NADP^+.
Setting [10] is: 0.25 M formate, Serov et al. (2002).
The mark [11] stands for this setting: 0.5 M formate, Serov et al. (2002).

Like-named read-outs stand apart in the source and are kept apart here.

B1: CmetFDH: NADH-dependent wild-type FDH from Candida methylica, Seq ID No: 6 (protein, listed as Candida methylica)
chain: MKIVLVLYDAGKHAADEEKLYGCTENKLGIANWLKDQGHELITTSDKEGETSELDKHIPDADIIITTPFHPAYITKERLDKAKNLKSVVVAGVGSDHIDLDYINQTGKKISVLEVTGSNVVSVAEHVVMTMLVLVRNFVPAHEQIINHDWEVAAIAKDAYDIEGKTIATIGAGRIGYRVLERLLPFNPKELLYYDYQALPKEAEEKVGARRVENIEELVAQADIVTVNAPLHAGTKGLINKELLSKFKKGAWLVNTARGAICVAEDVAAALESGQLRGYGGDVWFPQPAPKDHPWRDMRNKYGAGNAMTPHYSGTTLDAQTRYAEGTKNILESFFTGKFDYRPQDIILLNGEYVTKAYGKHDKK
In the case of B1, in [1], the Km (in general, the concentration of substrate that gives half-maximal velocity) stood at 7 ± 1.4 mM and the “kcat NADP^+” value stood at 0.005 ± 0 s⁻¹. Besides, in data set [2], the “formate oxidation, times more effective with NAD^+ than with NADP^+” value was 1.7×10^4 times; the Km is 0.2 mM; the “kcat NAD^+” value came to 1.67 ± 0.033 s⁻¹. For the same molecule, in data set [3] (formate oxidation with NAD^+), the Km turned out to be 8.29 ± 1 mM; the kcat (usually the number of substrate molecules converted per active site and unit of time at saturation) was 6.9875 ± 0.2928 s⁻¹.

B2: PseFDH: FDH from Pseudomonas sp. 101, Seq ID No: 3 (protein, listed as Pseudomonas sp.)
chain: MAKVLCVLYDDPVDGYPKTYARDDLPKIDHYPGGQTLPTPKAIDFTPGQLLGSVSGELGLRKYLESNGHTLVVTSDKDGPDSVFERELVDADVVISQPFWPAYLTPERIAKAKNLKLALTAGIGSDHVDLQSAIDRNVTVAEVTYCNSISVAEHVVMMILSLVRNYLPSHEWARKGGWNIADCVSHAYDLEAMHVGTVAAGRIGLAVLRRLAPFDVHLHYTDRHRLPESVEKELNLTWHATREDMYPVCDVVTLNCPLHPETEHMINDETLKLFKRGAYIVNTARGKLCDRDAVARALESGRLAGYAGDVWFPQPAPKDHPWRTMPYNGMTPHISGTTLTAQARYAAGTR
Regarding B2, in data set [4] (data from Serov et al. (2002)), the “kcat NAD^+” value was 10.0 ± 0.6 s⁻¹ and the Km is 0.06 ± 0.005 mM. In addition, the “formate oxidation, times more effectively with NAD^+ than with NADP^+” value in [5] (Tishkov et al. (1991)) is reported as 2400 times. In [5] (unit = μmol formate oxidized per min, literature), the “activity with NAD^+” value was 6-8 U/mg.

B3: Bsp184FDH: wild type FDH from Burkholderia cenocepacia PC184, Seq ID No: 2, C-terminal His-tagged (protein, listed as Burkholderia cenocepacia)
chain: MATVLCVLYPDPVDGYPPRYVRDTIPVITHYADGQTAPTPAGPPGFRPGELVGSVSGALGLRGYMEAHGHTLIVTSDKDGPDSEFERRLPEADVVISQPFWPAYLSAERIARAPKLKLALTAGIGSDHVDLDAAARARITVAEVTGSNSISVAEHVVMTTLALVRNYLPSHAVAQQGGWNIADCVSRSYDVEGMHFGTVGAGRIGLAVLRRLQPFGLQLHYTQRHRLDASIEQALALTYHADVASLASAVDIVNLQIPLYPSTEHLFDAAMIARMKRGAYLINTARAKLVDRDAVVNALTSGHLAGYGGDVWFPQPAPADHPWRTMPFNGMTPHISGTSLSAQARYAAGTLEILQCWFDGRPIRNEYLIVDGGTLAGTGAQSYRLT
modifications: C-terminal His tag
Regarding B3, in data set [1], the Km turned out to be 1.1 ± 0.1 mM and the “kcat NADP^+” value was 3.07 ± 0.083 s⁻¹. The “cofactor preference for NADP^+, times greater than those of known FDHs such as CmetFDH” value in data set [1] (relative to CmetFDH) was 10^6 times. Moreover, in data set [2], the Km amounted to 15 ± 4 mM and the “kcat NAD^+” value was determined as 0.567 ± 0.12 s⁻¹. In [3] (formate oxidation with NADP^+), the kcat came to 2.2073 ± 0.2553 s⁻¹. Besides, in data set [3] (formate oxidation with NAD^+), the Km worked out at 99.2 ± 7.11 mM and the kcat was found to be 0.34 ± 0.0123 s⁻¹. Also, in data set [6], the “activity with NADP^+” value is given as 3.12 U/mg and the “activity with NAD^+” value turned out to be 0.48 U/mg. In addition, in data set [7], the “activity at extreme pH” value is listed as “highly active”. Further, in data set [8], the “temperature at which the enzymes denature” value worked out at 80 °C. Besides, the “activity lost upon incubation” value in data set [8] (55° C. for 2 hours) is on record as “no activity was lost”. Also, the “stability at room temperature” value in data set [8] (room temperature for weeks) is given as “stable”.

B4: D197A/Y198R SceFDH: D197A/Y198R mutant of S. cerevisiae FDH, data from Serov et al. (2002) (protein, UniProt Q08911 1-376, looked up, variant D197A Y198R)
Formate dehydrogenase 1: MSKGKVLLVLYEGGKHAEEQEKLLGCIENELGIRNFIEEQGYELVTTIDKDPEPTSTVDRELKDAEIVITTPFFPAYISRNRIAEAPNLKLCVTAGVGSDHVDLEAANERKITVTEVTGSNVVSVAEHVMATILVLIRNYNGGHQQAINGEWDIAGVAKNEYDLEDKIISTVGAGRIGYRVLERLVAFNPKKLLYYARQELPAEAINRLNEASKLFNGRGDIVQRVEKLEDMVAQSDVVTINCPLHKDSRGLFNKKLISHMKDGAYLVNTARGAICVAEDVAEAVKSGKLAGYGGDVWDKQPAPKDHPWRTMDNKDHVGNAMTVHISGTSLDAQKRYAQGVKNILNSYFSKKFDYRPQDIIVQNGSYATRAYGQKK
As to B4, the results for the “kcat NADP^+” value in data set [9] (0.25 M formate) and in data set [9] (0.5 M formate) were 0.13 ± 0.01 s⁻¹ and 0.16 ± 0.02 s⁻¹, respectively. Also, the Km in [9] (0.25 M formate) was 4.5 ± 0.5 mM; in data set [9] (0.5 M formate), 7.6 ± 0.9 mM; in data set [4] (setting [10]) it was 7.6 ± 0.8 mM; in [4] (setting [11]), 8.4 ± 0.9 mM. Also, the results for the “kcat NAD^+” value in data set [4] (setting [10]) and in [4] (setting [11]) were 0.095 ± 0.01 s⁻¹ and 0.12 ± 0.02 s⁻¹, respectively.

B5: SceFDH: FDH from S. cerevisiae, Seq ID No: 4 (protein, listed as Saccharomyces cerevisiae)
chain: MSKGKVLLVLYEGGKHAEEQEKLLGCIENELGIRNFIEEQGYELVTTIDKDPEPTSTVDRELKDAEIVITTPFFPAYISRNRIAEAPNLKLCVTAGVGSDHVDLEAANERKITVTEVTGSNVVSVAEHVMATILVLIRNYNGGHQQAINGEWDIAGVAKNEYDLEDKIISTVGAGRIGYRVLERLVAFNPKKLLYYDYQELPAEAINRLNEASKLFNGRGDIVQRVEKLEDMVAQSDVVTINCPLHKDSRGLFNKKLISHMKDGAYLVNTARGAICVAEDVAEAVKSGKLAGYGGDVWDKQPAPKDHPWRTMDNKDHVGNAMTVHISGTSLDAQKRYAQGVKNILNSYFSKKFDYRPQDIIVQN
Turning to B5, in data set [4] (data from Serov et al. (2002)), the “kcat NAD^+” value was 6.5 ± 0.4 s⁻¹ and the Km was 0.036 ± 0.005 mM.

The values above are taken from patent US20100086958A1, “NOVEL ENZYME” (priority 2008, published 2010).
